125 sequences from the supplement of paper PMC9112550, “Optimization of the antimicrobial peptide Bac7 by deep mutational scanning” (BMC Biology, 2022) can be followed below.

The data set deals with Escherichia coli TOP10. Kind of data set: shrunken log2 fold change of peptide-encoding DNA abundance (4.5 h post-induction vs induction); higher = less antimicrobial activity (less host growth inhibition). The following applies: time post-induction: 4.5 h; library: site-saturation at positions 5, 18, 19, 20.
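Further: peptides expressed intracellularly from a pBAD plasmid library in pooled LB shake-flask culture, induced with 0.3% L-arabinose, DNA abundance read by NGS, three biological replicates, DESeq2 with apeglm shrinkage.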

On to RRIRRRPPRLPRPRPRPQIKPRP, for which the “shrunken log2 fold change” value was -0.155. Consider RRIRYRPPRLPRPRPRPKGTPRP, for which the “shrunken log2 fold change” value was -0.0217. For the sequence RRIRGRPPRLPRPRPRPTDIPRP, the “shrunken log2 fold change” value turned out to be 0.114.

Turning to RRIRSRPPRLPRPRPRPVPQPRP, the “shrunken log2 fold change” value is 0.0741. For RRIRDRPPRLPRPRPRPHDTPRP, the “shrunken log2 fold change” value was -0.123. As to RRIRCRPPRLPRPRPRPEGCPRP, the “shrunken log2 fold change” value is 3.02.

Turning to RRIRARPPRLPRPRPRPCIMPRP, the “shrunken log2 fold change” value is -0.00141. The result for RRIRARPPRLPRPRPRPACCPRP reads 0.658; that for RRIRCRPPRLPRPRPRPGKGPRP, -0.025. With RRIRDRPPRLPRPRPRPGYYPRP, the “shrunken log2 fold change” value worked out at 0.117. Regarding RRIRQRPPRLPRPRPRPRWDPRP, the “shrunken log2 fold change” value was 0.29. The result for RRIRSRPPRLPRPRPRPVYIPRP reads -0.124; that for RRIRERPPRLPRPRPRPGLCPRP, 0.00687; that for RRIRFRPPRLPRPRPRPVMFPRP, -0.218. The result for RRIRERPPRLPRPRPRPATRPRP reads 0.102; that for RRIRKRPPRLPRPRPRPQRQPRP, 0.265. The result for RRIRGRPPRLPRPRPRPCQFPRP reads 0.33.

For the sequence RRIRVRPPRLPRPRPRPLHFPRP, the “shrunken log2 fold change” value was -0.346. On to RRIRRRPPRLPRPRPRPKFNPRP, for which the “shrunken log2 fold change” value amounted to 0.00967. For RRIRERPPRLPRPRPRPQFHPRP, the “shrunken log2 fold change” value was -0.629. In the case of RRIRWRPPRLPRPRPRPYICPRP, the “shrunken log2 fold change” value was -0.329. For the sequence RRIRQRPPRLPRPRPRPGVNPRP, the “shrunken log2 fold change” value is -0.343. The result for RRIRVRPPRLPRPRPRPRIWPRP reads 0.468; that for RRIRKRPPRLPRPRPRPMASPRP, 0.55. The result for RRIRNRPPRLPRPRPRPTVEPRP reads 0.0287; that for RRIRFRPPRLPRPRPRPINKPRP, -0.582; that for RRIRIRPPRLPRPRPRPVTRPRP, 0.0796. The result for RRIRFRPPRLPRPRPRPYVGPRP reads -0.108; that for RRIRHRPPRLPRPRPRPHAEPRP, -0.0216; that for RRIRMRPPRLPRPRPRPLKFPRP, 0.426.

On to RRIRARPPRLPRPRPRPDTAPRP, for which the “shrunken log2 fold change” value was 0.147. The result for RRIRFRPPRLPRPRPRPFSDPRP reads -0.229; that for RRIRKRPPRLPRPRPRPVTTPRP, 0.0429. The result for RRIRFRPPRLPRPRPRPWCLPRP reads -0.17; that for RRIRCRPPRLPRPRPRPMHHPRP, -0.796; that for RRIRCRPPRLPRPRPRPHKFPRP, -0.742. On to RRIRCRPPRLPRPRPRPERYPRP, for which the “shrunken log2 fold change” value was -0.153.

As to RRIRERPPRLPRPRPRPNPMPRP, the “shrunken log2 fold change” value was -0.211. The result for RRIRYRPPRLPRPRPRPTEFPRP reads -0.465; that for RRIRMRPPRLPRPRPRPKLYPRP, 0.256; that for RRIRERPPRLPRPRPRPIPTPRP, 0.0239. In the case of RRIRGRPPRLPRPRPRPCWHPRP, the “shrunken log2 fold change” value was found to be 0.357. In the case of RRIRHRPPRLPRPRPRPWDNPRP, the “shrunken log2 fold change” value amounted to 0.0451. RRIRQRPPRLPRPRPRPFAMPRP: the “shrunken log2 fold change” value was -0.132. Take RRIRQRPPRLPRPRPRPCGLPRP: the “shrunken log2 fold change” value was 0.131. The result for RRIRCRPPRLPRPRPRPHYGPRP reads -0.189. The result for RRIRDRPPRLPRPRPRPREQPRP reads 1.36; that for RRIRIRPPRLPRPRPRPPALPRP, 0.0147. The result for RRIRFRPPRLPRPRPRPQCKPRP reads -0.422; that for RRIRNRPPRLPRPRPRPVAYPRP, 0.0201. RRIRGRPPRLPRPRPRPFRRPRP: the “shrunken log2 fold change” value came to 0.234.

Consider RRIRLRPPRLPRPRPRPYPIPRP, for which the “shrunken log2 fold change” value is 0.107.

In the case of RRIRGRPPRLPRPRPRPTLDPRP, the “shrunken log2 fold change” value is 0.93. The result for RRIRPRPPRLPRPRPRPEQSPRP reads 0.289; that for RRIRLRPPRLPRPRPRPWDMPRP, -0.235. As for RRIRNRPPRLPRPRPRPQGQPRP, the “shrunken log2 fold change” value was 0.225. As to RRIRVRPPRLPRPRPRPDDHPRP, the “shrunken log2 fold change” value was -0.106.

Regarding RRIRERPPRLPRPRPRPNWHPRP, the “shrunken log2 fold change” value is -0.185.

Consider RRIRFRPPRLPRPRPRPCCDPRP, for which the “shrunken log2 fold change” value was -0.239. The result for RRIRVRPPRLPRPRPRPGSAPRP reads 0.179. In the case of RRIRIRPPRLPRPRPRPQVGPRP, the “shrunken log2 fold change” value is -0.094.

Consider RRIRMRPPRLPRPRPRPMWQPRP, for which the “shrunken log2 fold change” value amounted to 0.188. The result for RRIRLRPPRLPRPRPRPVEAPRP reads 0.224. The result for RRIRCRPPRLPRPRPRPKRLPRP reads 0.0169; that for RRIRSRPPRLPRPRPRPPERPRP, 0.0652. The result for RRIRIRPPRLPRPRPRPMQFPRP reads -0.343; that for RRIRFRPPRLPRPRPRPRSQPRP, -0.105. Take RRIRFRPPRLPRPRPRPMMGPRP: the “shrunken log2 fold change” value was -0.0671. For RRIRVRPPRLPRPRPRPPLMPRP, the “shrunken log2 fold change” value came to 0.175.

As for RRIRSRPPRLPRPRPRPTPRPRP, the “shrunken log2 fold change” value came out at 0.843.

RRIRVRPPRLPRPRPRPLLQPRP: the “shrunken log2 fold change” value is 0.0881. The result for RRIRPRPPRLPRPRPRPDYHPRP reads -0.815; that for RRIRKRPPRLPRPRPRPNMDPRP, -0.0504. Turning to RRIRTRPPRLPRPRPRPICPPRP, the “shrunken log2 fold change” value was -0.0534. Turning to RRIRQRPPRLPRPRPRPTLHPRP, the “shrunken log2 fold change” value was 0.0326. The result for RRIRTRPPRLPRPRPRPCSKPRP reads -0.074; that for RRIRFRPPRLPRPRPRPSWWPRP, 0.212; that for RRIRYRPPRLPRPRPRPYSGPRP, -1. The result for RRIRIRPPRLPRPRPRPNKYPRP reads -0.932; that for RRIRCRPPRLPRPRPRPQWLPRP, -0.133; that for RRIRKRPPRLPRPRPRPHLAPRP, 0.0615. In the case of RRIRLRPPRLPRPRPRPGITPRP, the “shrunken log2 fold change” value is -0.322.

For the sequence RRIRNRPPRLPRPRPRPRRQPRP, the “shrunken log2 fold change” value was determined as 0.227.

Consider RRIRTRPPRLPRPRPRPCTHPRP, for which the “shrunken log2 fold change” value is -0.0873. The result for RRIRMRPPRLPRPRPRPGPKPRP reads 1.81. The result for RRIRFRPPRLPRPRPRPFWSPRP reads -0.0458; that for RRIRHRPPRLPRPRPRPIAFPRP, -0.362; that for RRIRKRPPRLPRPRPRPVPLPRP, 0.185.

Turning to RRIRMRPPRLPRPRPRPHLDPRP, the “shrunken log2 fold change” value is 0.108. The result for RRIRWRPPRLPRPRPRPRRCPRP reads 0.224. The result for RRIRKRPPRLPRPRPRPFGAPRP reads 0.45; that for RRIRCRPPRLPRPRPRPQVDPRP, 0.0243; that for RRIRQRPPRLPRPRPRPDLYPRP, -0.105. The result for RRIRPRPPRLPRPRPRPCMVPRP reads -0.423; that for RRIRYRPPRLPRPRPRPGVGPRP, -0.103. As to RRIRHRPPRLPRPRPRPVKIPRP, the “shrunken log2 fold change” value was -0.0352. The result for RRIRARPPRLPRPRPRPPVNPRP reads 0.36; that for RRIRARPPRLPRPRPRPTSMPRP, 0.127. The result for RRIRIRPPRLPRPRPRPVHVPRP reads -0.168; that for RRIRWRPPRLPRPRPRPAAYPRP, 0.346; that for RRIRRRPPRLPRPRPRPHREPRP, -0.0451. The result for RRIRIRPPRLPRPRPRPLFIPRP reads -0.525; that for RRIRQRPPRLPRPRPRPMWSPRP, 0.0215; that for RRIRHRPPRLPRPRPRPKIGPRP, 0.0776. Take RRIRGRPPRLPRPRPRPLCRPRP: the “shrunken log2 fold change” value worked out at 0.598.

As for RRIRFRPPRLPRPRPRPQNHPRP, the “shrunken log2 fold change” value was -0.619. The result for RRIRRRPPRLPRPRPRPNPLPRP reads 0.269; that for RRIRKRPPRLPRPRPRPGHQPRP, -0.0847. The result for RRIRERPPRLPRPRPRPFTRPRP reads -0.0106; that for RRIRIRPPRLPRPRPRPCWVPRP, -0.451.

As for RRIRKRPPRLPRPRPRPKNFPRP, the “shrunken log2 fold change” value is -0.148. The result for RRIRYRPPRLPRPRPRPHEWPRP reads -0.0416; that for RRIRPRPPRLPRPRPRPMYCPRP, -0.0366; that for RRIRKRPPRLPRPRPRPVIKPRP, 0.0845. In the case of RRIRHRPPRLPRPRPRPQFNPRP, the “shrunken log2 fold change” value was -0.619. The result for RRIRPRPPRLPRPRPRPQWIPRP reads 0.0662; that for RRIRYRPPRLPRPRPRPKKMPRP, -0.374. As to RRIRWRPPRLPRPRPRPCHDPRP, the “shrunken log2 fold change” value was 0.0415. The result for RRIRGRPPRLPRPRPRPGGEPRP reads 1.24; that for RRIRARPPRLPRPRPRPRCWPRP, 0.601. As for RRIRERPPRLPRPRPRPTMYPRP, the “shrunken log2 fold change” value is -0.162.

Turning to RRIRLRPPRLPRPRPRPRGEPRP, the “shrunken log2 fold change” value was determined as 0.207. The result for RRIRKRPPRLPRPRPRPHEMPRP reads 0.0317; that for RRIRVRPPRLPRPRPRPQSMPRP, 0.229. The result for RRIRKRPPRLPRPRPRPHGDPRP reads 0.0106.
